Experimental data taken from PMC2661963, “The Active Site of a Carbohydrate Esterase Displays Divergent Catalytic and Noncatalytic Binding Functions” (PLoS Biology, 2009).
Where a chain is given by its changes, count along the chain named. Numbers in names are those of the source. Blank lines part the entries; values can stand above or below the molecule they belong to.

Legend:
CtCE2 [1] = biological target: T1, CtCE2 (Acetivibrio thermocellus, UniProt P10477); assay: isothermal titration calorimetry; format: binding; conditions: 50 mM HEPES-Na, 25 °C; pH 8.0 with 300 mM NaCl (Methods; Figure 5 legend says pH 7.0); binds across esterase active site
T1 construct: gene celE; C-terminal CE2 esterase module only, residues 482-814 of the full-length enzyme, C-terminal His6 tag, pET22b, E. coli BL21
T1 sequence (P10477 482-814): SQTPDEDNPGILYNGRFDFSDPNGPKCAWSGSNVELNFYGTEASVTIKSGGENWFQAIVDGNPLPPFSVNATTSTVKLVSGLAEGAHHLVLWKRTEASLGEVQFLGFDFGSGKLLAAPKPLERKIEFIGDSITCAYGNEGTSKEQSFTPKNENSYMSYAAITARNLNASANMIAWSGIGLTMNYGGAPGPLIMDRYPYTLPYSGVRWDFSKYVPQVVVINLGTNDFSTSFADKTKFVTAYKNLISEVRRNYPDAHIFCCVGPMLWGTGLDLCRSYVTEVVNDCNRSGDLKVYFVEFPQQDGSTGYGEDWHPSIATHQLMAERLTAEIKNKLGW
Source text: (§1) isothermal titration calorimetry on CtCE2

CtCE2 [2] = biological target: T1, CtCE2; assay: inhibition of 4-nitrophenyl acetate hydrolysis; format: biochemical; conditions: substrate 4-nitrophenyl acetate; noncompetitive; 37 °C
Source text: inhibition of 4-nitrophenyl acetate hydrolysis on CtCE2

CtCE2 [3] = biological target: T2, CtCE2 (Acetivibrio thermocellus, UniProt P10477, H791A); assay: isothermal titration calorimetry; format: binding; conditions: 50 mM HEPES-Na, 25 °C; pH 8.0 with 300 mM NaCl (Methods; Figure 5 legend says pH 7.0); binds across esterase active site
T2 construct: gene celE; C-terminal CE2 esterase module only, residues 482-814 of the full-length enzyme, C-terminal His6 tag, pET22b, E. coli BL21
T2 sequence (P10477 482-814 H791A): as the sequence (P10477 482-814) above, with H310A counted along it
Source text: as §1

CtCE2 [4] = biological target: T3, CtCE2 (Acetivibrio thermocellus, UniProt P10477, S612A); assay: isothermal titration calorimetry; format: binding; conditions: 50 mM HEPES-Na, 25 °C; pH 8.0 with 300 mM NaCl (Methods; Figure 5 legend says pH 7.0); binds across esterase active site
T3 construct: gene celE; C-terminal CE2 esterase module only, residues 482-814 of the full-length enzyme, C-terminal His6 tag, pET22b, E. coli BL21
T3 sequence (P10477 482-814 S612A): as the sequence (P10477 482-814) above, with S131A counted along it
Source text: as §1

CtCE2 [5] = biological target: T4, CtCE2 (Acetivibrio thermocellus, UniProt P10477, W746A); assay: isothermal titration calorimetry; format: binding; conditions: 50 mM HEPES-Na, 25 °C; pH 8.0 with 300 mM NaCl (Methods; Figure 5 legend says pH 7.0); binds across esterase active site
T4 construct: gene celE; C-terminal CE2 esterase module only, residues 482-814 of the full-length enzyme, C-terminal His6 tag, pET22b, E. coli BL21
T4 sequence (P10477 482-814 W746A): as the sequence (P10477 482-814) above, with W265A counted along it
Source text: as §1

CtCE2 [6] = biological target: T5, CtCE2 (Acetivibrio thermocellus, UniProt P10477, Y683A); assay: isothermal titration calorimetry; format: binding; conditions: 50 mM HEPES-Na, 25 °C; pH 8.0 with 300 mM NaCl (Methods; Figure 5 legend says pH 7.0); binds across esterase active site
T5 construct: gene celE; C-terminal CE2 esterase module only, residues 482-814 of the full-length enzyme, C-terminal His6 tag, pET22b, E. coli BL21
T5 sequence (P10477 482-814 Y683A): as the sequence (P10477 482-814) above, with Y202A counted along it
Source text: as §1

purified protein [7] = substrate: CC(=O)Oc1ccc([N+](=O)[O-])cc1; assay: purified protein; format: biochemical, Acetivibrio thermocellus; conditions: 50 mM sodium phosphate pH 7.0, 1 mg/ml BSA
purified protein [8] = substrate: CC(=O)Oc1ccc([N+](=O)[O-])cc1; assay: purified protein; format: biochemical, Cellvibrio japonicus; conditions: 50 mM sodium phosphate pH 7.0, 1 mg/ml BSA

Kd (CtCE2 [1]): > 1000 µM
Molecule: OC[C@H]1O[C@@H](O[C@H]2[C@H](O)[C@@H](O)[C@H](O[C@H]3[C@H](O)[C@@H](O)C(O)O[C@@H]3CO)O[C@@H]2CO)[C@H](O)[C@@H](O)[C@@H]1O (stereo partly shown) [cellotriose]

Kd (CtCE2 [1]): 71 µM
Molecule: OC[C@H]1O[C@@H](O[C@H]2[C@H](O)[C@@H](O)[C@H](O[C@H]3[C@H](O)[C@@H](O)[C@H](O[C@H]4[C@H](O)[C@@H](O)[C@H](O[C@H]5[C@H](O)[C@@H](O)C(O)O[C@@H]5CO)O[C@@H]4CO)O[C@@H]3CO)O[C@@H]2CO)[C@H](O)[C@@H](O)[C@@H]1O (stereo partly shown) [cellopentaose]

Kd (CtCE2 [1]): 333 µM
Molecule: OC[C@H]1O[C@@H](O[C@H]2[C@H](O)[C@@H](O)[C@H](O[C@H]3[C@H](O)[C@@H](O)[C@H](O[C@H]4[C@H](O)[C@@H](O)C(O)O[C@@H]4CO)O[C@@H]3CO)O[C@@H]2CO)[C@H](O)[C@@H](O)[C@@H]1O (stereo partly shown) [cellotetraose]

Ki (CtCE2 [2]): 3.1 µM
Kd (CtCE2 [1]): 33 µM
Kd (CtCE2 [3]): 667 µM
Kd (CtCE2 [4]): 4.1 µM
Kd (CtCE2 [5]): > 1000 µM
Kd (CtCE2 [6]): 37 µM
Molecule: OC[C@H]1O[C@@H](O[C@H]2[C@H](O)[C@@H](O)[C@H](O[C@H]3[C@H](O)[C@@H](O)[C@H](O[C@H]4[C@H](O)[C@@H](O)[C@H](O[C@H]5[C@H](O)[C@@H](O)[C@H](O[C@H]6[C@H](O)[C@@H](O)C(O)O[C@@H]6CO)O[C@@H]5CO)O[C@@H]4CO)O[C@@H]3CO)O[C@@H]2CO)[C@H](O)[C@@H](O)[C@@H]1O (stereo partly shown) [cellohexaose]

B1: CtCE2 (Acetivibrio thermocellus ATCC 27405; D789A) (protein)
chain: SQTPDEDNPGILYNGRFDFSDPNGPKCAWSGSNVELNFYGTEASVTIKSGGENWFQAIVDGNPLPPFSVNATTSTVKLVSGLAEGAHHLVLWKRTEASLGEVQFLGFDFGSGKLLAAPKPLERKIEFIGDSITCAYGNEGTSKEQSFTPKNENSYMSYAAITARNLNASANMIAWSGIGLTMNYGGAPGPLIMDRYPYTLPYSGVRWDFSKYVPQVVVINLGTNDFSTSFADKTKFVTAYKNLISEVRRNYPDAHIFCCVGPMLWGTGLDLCRSYVTEVVNDCNRSGDLKVYFVEFPQQDGSTGYGEAWHPSIATHQLMAERLTAEIKNKLGW
notes: C-terminal CE2 esterase module only, residues 482-814 of the full-length enzyme, C-terminal His6 tag, pET22b, E. coli BL21
Km (purified protein [7]): 75 µM
kcat (purified protein [7]): 2,512 min-1

B2: CtCE2 (Acetivibrio thermocellus ATCC 27405; D789N) (protein)
chain: B1 chain with A308N
notes: as for B1
Km (purified protein [7]): 186 µM
kcat (purified protein [7]): 2,976 min-1

B3: CtCE2 (Acetivibrio thermocellus ATCC 27405) (protein)
chain: B1 chain with A308D
notes: as for B1
Km (purified protein [7]): 165 µM
kcat (purified protein [7]): 7,032 min-1

B4: CjCE2B (Cellvibrio japonicus Ueda107) (protein)
chain: ADSTKPLPLHIGGRVLVESPANQPVSYTYSWPAVYFETAFKGQSLTLKFDDDQNIFRLIVDDKAPVVINKPGKVDYPVESLAPGKHRVRLEKLTETQSTSGRFLGFYTDPSAKPLALPKRKRQIEFIGDSFTVGYGNTSPSRECTDEELFKTTNSQMAFGPLTAKAFDADYQINASSGFGIVRNYNGTSPDKSLLSLYPYTLNNPDQLYHNKHWKPQVIVIGLGTNDFSTALNDNERWKTREALHADYVANYVKFVKQLHSNNARAQFILMNSDQSNGEIAEQVGKVVAQLKGGGLHQVEQIVFKGLDYSGCHWHPSANDDQLLANLLITHLQQKKGIW
notes: mature form (signal peptide removed), C-terminal His6 tag, pET22b, E. coli BL21; model ordered 26-361; Cys-333, Trp-335, Tyr-206
Km (purified protein [8]): 262 µM
kcat (purified protein [8]): 49,820 min-1

B5: CjCE2A (Cellvibrio japonicus Ueda107) (protein)
chain: NTQSLMSSTHTIAASDPHIQVMGRTHINDDASLTFGYPGVSLSTIVAGSRLTAEMQSSNGNSWIDVIIDNHPPTSIKLDAQQQTVELFHFPNSGEHRVEIIHRSENWHGQVTLKQLTLTGTQFLPAPVLPQRKILVLGDSVTCGEAIDRVAGEDKNTRWWNARESYGMLTAKALDAQVQLVCWGGRGLIRSWNGKTDDANLPDFYQFTLGDTGQAPQWDHHRYQPDLIISAIGTNDFSPGIPDRATYINTYTRFVRTLLDNHPQATIVLTEGAILNGDKKAALVSYIGETRQQLHSNRVFYASSSHHPGDNSDAHPTKDQHAAMARELTPQLRQIMDW
notes: mature form (signal peptide removed), C-terminal His6 tag, pET22b, E. coli BL21; catalytic triad Ser-160, His-335, Asp-333; Trp-127, Trp-212
Km (purified protein [8]): 339 µM
kcat (purified protein [8]): 7,717 min-1
